{"source": "patent US20050064392A1", "about": "(TRUSTEES OF THE UNIVERSITY OF PENNYLVANIA, published 2005)", "binders": {"B1": {"name": "HIV-2/VCP gp120 (other)", "chain": "KQFVTVFYGIPAWRNASIPLFCATKNRDTWGTIQCLPDNDDYQEIALNVTEAFDAWNNTVTEQAVEDVWNLFETSIKPCVKLTPLCVAMNCTRNMTTSTGTTDTQNITIINDTSPCVRADNCTGLKEEEMVDCQFNMTGLERDKRKQYTEAWYSKDVICDNNTSSRSKCYMNHCNTSVITESCDKHYWDAMRFRYCAPPGFALLRCNDTNYSGFAPNCSKVVAATCTRMMETQSSTWFGFNGTRAENRTYIYWHGKNNRTIISLNNFYNLTMHCKRPGNKTVLPIMSGFKFHSKPVINKKPRQAWCWFKGEWKEAMQEVKETLAKHPRYKGNRSRTENIKFKAPGRGSDPEAAYMWTNCRGEFLYCNMTWFLNWVDNRTGQKQRNYAPCHIRQIINTWHRVGKNVYLPPREGELTCNSTVTSIIANIDTGDQTDITFSAEVAELYRLELGDYKLVEITPIGFAPTSVKRYSSAHQRHTR", "notes": "also called gp120 Env of HIV-2/VCP"}}, "biological_target": "T1, CXCR4 (UniProt P61073 1-352)", "T1 construct": "whole, on cells; also called X4", "T1 sequence (P61073 whole entry)": "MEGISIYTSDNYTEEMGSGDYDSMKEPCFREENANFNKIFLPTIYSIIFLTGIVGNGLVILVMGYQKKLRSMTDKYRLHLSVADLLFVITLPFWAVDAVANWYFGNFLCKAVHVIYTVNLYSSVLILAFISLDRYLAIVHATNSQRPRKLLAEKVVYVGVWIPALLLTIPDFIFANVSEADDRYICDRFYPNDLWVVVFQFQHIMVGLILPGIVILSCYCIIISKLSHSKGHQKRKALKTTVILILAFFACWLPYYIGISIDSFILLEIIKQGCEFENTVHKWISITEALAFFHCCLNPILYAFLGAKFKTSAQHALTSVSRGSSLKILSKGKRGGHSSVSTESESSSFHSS", "experiment": "western blot binding assay on CXCR4-transfected cells"}
{"binder": "B1", "values": [{"measurement": "binding result", "value": "binds"}]}
